Data from patent US20180155451A1 (published 2018).

T1: FcγRIIb (human, UniProt P31994 43-217)
T1 construct: extracellular domain; Soluble extracellular domain with C-terminal His tag, used as analyte in Biacore; also called FcgRIIb; 2b; not shown: His tag attached to the C terminus
T1 sequence (looked up): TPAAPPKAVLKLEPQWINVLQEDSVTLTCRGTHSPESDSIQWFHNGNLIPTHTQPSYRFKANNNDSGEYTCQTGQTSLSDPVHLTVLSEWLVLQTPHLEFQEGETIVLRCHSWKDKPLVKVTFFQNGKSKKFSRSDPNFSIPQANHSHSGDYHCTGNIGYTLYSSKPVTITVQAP


Experiments:
[1] = target: T1, FcγRIIb; experiment: SPR (Biacore), antibody captured on antigen peptide, FcγR as analyte; relative to GpH7-A5/GpH7-B3/GpL16-k0 = 100
[2] = target: T2, FcγRIa (human, UniProt P12314 16-292); experiment: as above
T2 construct: extracellular domain; Soluble extracellular domain with C-terminal His tag, used as analyte in Biacore; also called FcgRI; 1a; not shown: His tag attached to the C terminus
T2 sequence (P12314 16-292): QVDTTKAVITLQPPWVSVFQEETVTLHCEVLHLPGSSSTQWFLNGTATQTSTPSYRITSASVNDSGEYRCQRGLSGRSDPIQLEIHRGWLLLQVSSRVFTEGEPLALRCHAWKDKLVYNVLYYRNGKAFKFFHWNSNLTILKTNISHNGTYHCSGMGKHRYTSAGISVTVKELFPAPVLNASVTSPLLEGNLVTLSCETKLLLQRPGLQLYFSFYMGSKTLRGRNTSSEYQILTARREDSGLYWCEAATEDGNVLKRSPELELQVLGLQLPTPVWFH

He/Con_2b [1] | He/Con_1a [2] | Binder
111 % of control | 95.6 % of control | GpH7-A5/GpH7-B3 variant N325_03V/GpL16-k0 (antibody, human IgG1, kappa, Heterodimerized IgG1; mutation in the GpH7-B3 H chain only; also called He Ab) heavy 1: not shown heavy 2: not shown light: DIVMTQSPLSLPVTPGEPASISCQASESLVHSNRNTYLHWYLQKPGQSPQLLIYKVSNRFSGVPDRFSGSGSGTDFTLKISRVEAEDVGVYYCSQNTHVPPTFGQGTKVEIERTVAAPSVFIFPPSDEQLKSGTASVVCLLNNFYPREAKVQWKVDNALQSGNSQESVTEQDSKDSTYSLSSTLTLSKADYEKHKVYACEVTHQGLSSPVTKSFNRGEC
107 % of control | 97.8 % of control | GpH7-A5/GpH7-B3 variant S239_07I/GpL16-k0 (antibody, human IgG1, kappa, Heterodimerized IgG1; mutation in the GpH7-B3 H chain only; also called He Ab) heavy 1: not shown heavy 2: not shown light: DIVMTQSPLSLPVTPGEPASISCQASESLVHSNRNTYLHWYLQKPGQSPQLLIYKVSNRFSGVPDRFSGSGSGTDFTLKISRVEAEDVGVYYCSQNTHVPPTFGQGTKVEIERTVAAPSVFIFPPSDEQLKSGTASVVCLLNNFYPREAKVQWKVDNALQSGNSQESVTEQDSKDSTYSLSSTLTLSKADYEKHKVYACEVTHQGLSSPVTKSFNRGEC
115 % of control | 96 % of control | GpH7-A5/GpH7-B3 variant P238_16H/GpL16-k0 (antibody, human IgG1, kappa, Heterodimerized IgG1; mutation in the GpH7-B3 H chain only; also called He Ab) heavy 1: not shown heavy 2: not shown light: DIVMTQSPLSLPVTPGEPASISCQASESLVHSNRNTYLHWYLQKPGQSPQLLIYKVSNRFSGVPDRFSGSGSGTDFTLKISRVEAEDVGVYYCSQNTHVPPTFGQGTKVEIERTVAAPSVFIFPPSDEQLKSGTASVVCLLNNFYPREAKVQWKVDNALQSGNSQESVTEQDSKDSTYSLSSTLTLSKADYEKHKVYACEVTHQGLSSPVTKSFNRGEC
110 % of control | 97.6 % of control | GpH7-A5/GpH7-B3 variant P238_19Q/GpL16-k0 (antibody, human IgG1, kappa, Heterodimerized IgG1; mutation in the GpH7-B3 H chain only; also called He Ab) heavy 1: not shown heavy 2: not shown light: DIVMTQSPLSLPVTPGEPASISCQASESLVHSNRNTYLHWYLQKPGQSPQLLIYKVSNRFSGVPDRFSGSGSGTDFTLKISRVEAEDVGVYYCSQNTHVPPTFGQGTKVEIERTVAAPSVFIFPPSDEQLKSGTASVVCLLNNFYPREAKVQWKVDNALQSGNSQESVTEQDSKDSTYSLSSTLTLSKADYEKHKVYACEVTHQGLSSPVTKSFNRGEC
197 % of control | 97.5 % of control | GpH7-A5/GpH7-B3 variant N325_08L/GpL16-k0 (antibody, human IgG1, kappa, Heterodimerized IgG1; mutation in the GpH7-B3 H chain only; also called He Ab) heavy 1: not shown heavy 2: not shown light: DIVMTQSPLSLPVTPGEPASISCQASESLVHSNRNTYLHWYLQKPGQSPQLLIYKVSNRFSGVPDRFSGSGSGTDFTLKISRVEAEDVGVYYCSQNTHVPPTFGQGTKVEIERTVAAPSVFIFPPSDEQLKSGTASVVCLLNNFYPREAKVQWKVDNALQSGNSQESVTEQDSKDSTYSLSSTLTLSKADYEKHKVYACEVTHQGLSSPVTKSFNRGEC
123 % of control | 99.9 % of control | GpH7-A5/GpH7-B3 variant P238_20W/GpL16-k0 (antibody, human IgG1, kappa, Heterodimerized IgG1; mutation in the GpH7-B3 H chain only; also called He Ab) heavy 1: not shown heavy 2: not shown light: DIVMTQSPLSLPVTPGEPASISCQASESLVHSNRNTYLHWYLQKPGQSPQLLIYKVSNRFSGVPDRFSGSGSGTDFTLKISRVEAEDVGVYYCSQNTHVPPTFGQGTKVEIERTVAAPSVFIFPPSDEQLKSGTASVVCLLNNFYPREAKVQWKVDNALQSGNSQESVTEQDSKDSTYSLSSTLTLSKADYEKHKVYACEVTHQGLSSPVTKSFNRGEC
143 % of control | 93.2 % of control | GpH7-A5/GpH7-B3 variant N325_04F/GpL16-k0 (antibody, human IgG1, kappa, Heterodimerized IgG1; mutation in the GpH7-B3 H chain only; also called He Ab) heavy 1: not shown heavy 2: not shown light: DIVMTQSPLSLPVTPGEPASISCQASESLVHSNRNTYLHWYLQKPGQSPQLLIYKVSNRFSGVPDRFSGSGSGTDFTLKISRVEAEDVGVYYCSQNTHVPPTFGQGTKVEIERTVAAPSVFIFPPSDEQLKSGTASVVCLLNNFYPREAKVQWKVDNALQSGNSQESVTEQDSKDSTYSLSSTLTLSKADYEKHKVYACEVTHQGLSSPVTKSFNRGEC
171 % of control | 94.8 % of control | GpH7-A5/GpH7-B3 variant N325_07I/GpL16-k0 (antibody, human IgG1, kappa, Heterodimerized IgG1; mutation in the GpH7-B3 H chain only; also called He Ab) heavy 1: not shown heavy 2: not shown light: DIVMTQSPLSLPVTPGEPASISCQASESLVHSNRNTYLHWYLQKPGQSPQLLIYKVSNRFSGVPDRFSGSGSGTDFTLKISRVEAEDVGVYYCSQNTHVPPTFGQGTKVEIERTVAAPSVFIFPPSDEQLKSGTASVVCLLNNFYPREAKVQWKVDNALQSGNSQESVTEQDSKDSTYSLSSTLTLSKADYEKHKVYACEVTHQGLSSPVTKSFNRGEC
118 % of control | 97.1 % of control | GpH7-A5/GpH7-B3 variant L235_04F/GpL16-k0 (antibody, human IgG1, kappa, Heterodimerized IgG1; mutation in the GpH7-B3 H chain only; also called He Ab) heavy 1: not shown heavy 2: not shown light: DIVMTQSPLSLPVTPGEPASISCQASESLVHSNRNTYLHWYLQKPGQSPQLLIYKVSNRFSGVPDRFSGSGSGTDFTLKISRVEAEDVGVYYCSQNTHVPPTFGQGTKVEIERTVAAPSVFIFPPSDEQLKSGTASVVCLLNNFYPREAKVQWKVDNALQSGNSQESVTEQDSKDSTYSLSSTLTLSKADYEKHKVYACEVTHQGLSSPVTKSFNRGEC
